The values below come from publication PMC12992115 (Nature Cell Biology, 2026).

Series [1] has as its target BicD2–rigor kinesin conjugate (BicD2(25–400)–SpyCatcher003 covalently linked to KIF5B(1–490) rigor mutant–SpyTag003) (mouse | not stated) (UniProt Q921C5). Description: three-colour single-molecule TIRF co-localization.
Series [2] has as its target Biotinylated BicD2 (amino acids 25–400) (mouse) (UniProt Q921C5). Description: three-colour single-molecule TIRF co-localization.
Series [3] addresses BicD2–superfolder green fluorescent protein (sfGFP), amino acids 25–400 (UniProt Q921C5). Description: pull-down + other: mass photometry.
The target in series [4] is BicD2(25–400) with SpyCatcher003 at the C terminus (mouse) (UniProt Q921C5). Description: mass photometry.
The target of series [5] is truncated kinesin-1 rigor mutant (KIF5B(1–490)) with SpyTag003 at the C terminus (UniProt P33176). Description: mass photometry.
The series “mass photometry” deals with the molecule itself. Description: mass photometry.

“And” between values parts separate entries of the source, which are not always exact repeats. Equal values may be shown once.

Sequence of BicD2–superfolder green fluorescent protein (sfGFP), amino acids 25–400 (Q921C5 25-400): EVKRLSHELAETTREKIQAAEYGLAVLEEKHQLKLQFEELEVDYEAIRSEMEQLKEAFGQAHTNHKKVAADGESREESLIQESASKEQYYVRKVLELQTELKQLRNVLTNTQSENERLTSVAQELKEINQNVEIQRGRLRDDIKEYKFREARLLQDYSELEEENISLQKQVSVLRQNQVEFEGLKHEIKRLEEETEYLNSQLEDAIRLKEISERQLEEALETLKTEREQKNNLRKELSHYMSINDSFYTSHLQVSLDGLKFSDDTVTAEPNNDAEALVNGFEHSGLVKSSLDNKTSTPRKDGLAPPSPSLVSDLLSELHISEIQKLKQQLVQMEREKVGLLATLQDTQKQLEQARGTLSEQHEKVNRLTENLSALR
Sequence of BicD2–rigor kinesin conjugate (BicD2(25–400)–SpyCatcher003 covalently linked to KIF5B(1–490) rigor mutant–SpyTag003) (mouse | not stated) (Q921C5 25-400, change not shown): as the sequence (Q921C5 25-400) above
Sequence of Biotinylated BicD2 (amino acids 25–400) (mouse) (Q921C5 25-400): as above

Regarding “recombinant full-length human cytoplasmic dynein-1 complex co-expressed with its five accessory chains (from UniProt Q14204;Q13409;O43237;P63172;P63167;Q9NP97)”, the frequency of three-colour dynein co-localization in series [1] is 0.028; in series [2], 0.018.
Regarding “cytoplasmic dynein from rat-brain lysate (complex)”, the stoichiometry N (dynein per DDB complex) in series [3] is 1 and 2.
The stoichiometry N is the number of molecules, sites or subunits per partner or assembly. For “BicD2(25–400) with SpyCatcher003 at the C terminus (from UniProt Q921C5 25-400) (domain or fragment)”, in series [4], the stoichiometry N turned out to be 2. In series [5], this molecule came in with a stoichiometry N (BicD2:rigor kinesin (2:2)) of 1.

B1: truncated kinesin-1 rigor mutant (KIF5B(1–490)) with SpyTag003 at the C terminus (domain or fragment)
chain: MADLAESNIKVMCRFRPLNESEVNRGDKYIAKFQGEDTVVIACKPYAFDRVFQSSTSQEQVYNDAAKKIVKDVLEGYNGTIFAYGQTSSGKNHTMEGKLHDPEGMGIIPRIVQDIFNYIYSMDENLEFHIKVSYFEIYLDKIRDLLDVSKTNLSVHEDKNRVPYVKGATERFVSSPDEVMDTIDEGKSNRHVAVTNMNEHSSRSHSIFLINVKQENTQTEQKLSGKLYLVDLAGSEKVSKTGAEGAVLDEAKNINKSLSALGNVISALAEGSTYVPYRDSKMTRILQDSLGGNARTTIVICCSPSSYNESETKSTLLFGQRAKTIKNTVSVNVELTAEQWKKKYEKEKEKNKILRNTIQWLENELNRWRNGETVPIDEQFDKEKANLEAFTVDKDITLTNDKPATAIGVIGNFTDAERRKAEEEIAKLYKQLDDKDEEINQQSQLVEKLKTQMLDQEELLASTRRDQDNMQAELNRLQAENDASKEEVKE
modifications: cyanine 5 label (Fig. 5d) or CF488 label (Fig. 5h)
With B1, in “mass photometry”, the “stoichiometry N” value was 2.
